Laboratory results from patent publication US20240226230A1 (MAYO FOUNDATION FOR MEDICAL EDUCATION AND RESEARCH, published 2024).
Where no end group is shown, it is not given here.

B1: endogenous Nup50 (other, human, UniProt Q9UKX7 1-468, looked up)
chain: MAKRNAEKELTDRNWDQEDEAEEVGTFSMASEEVLKNRAIKKAKRRNVGFESDTGGAFKGFKGLVVPSGGGRFSGFGSGAGGKPLEGLSNGNNITSAPPFASAKAAADPKVAFGSLAANGPTTLVDKVSNPKTNGDSQQPSSSGLASSKACVGNAYHKQLAALNCSVRDWIVKHVNTNPLCDLTPIFKDYEKYLANIEQQHGNSGRNSESESNKVAAETQSPSLFGSTKLQQESTFLFHGNKTEDTPDKKMEVASEKKTDPSSLGATSASFNFGKKVDSSVLGSLSSVPLTGFSFSPGNSSLFGKDTTQSKPVSSPFPTKPLEGQAEGDSGECKGGDEEENDEPPKVVVTEVKEEDAFYSKKCKLFYKKDNEFKEKGIGTLHLKPTANQKTQLLVRADTNLGNILLNVLIPPNMPCTRTGKNNVLIVCVPNPPIDEKNATMPVTMLIRVKTSEDADELHKILLEKKDA
notes: Detected with anti-Nup50
B2: endogenous Nup62 (other, human, UniProt P37198 2-522, looked up)
chain: SGFNFGGTGAPTGGFTFGTAKTATTTPATGFSFSTSGTGGFNFGAPFQPATSTPSTGLFSLATQTPATQTTGFTFGTATLASGGTGFSLGIGASKLNLSNTAATPAMANPSGFGLGSSNLTNAISSTVTSSQGTAPTGFVFGPSTTSVAPATTSGGFSFTGGSTAQPSGFNIGSAGNSAQPTAPATLPFTPATPAATTAGATQPAAPTPTATITSTGPSLFASIATAPTSSATTGLSLCTPVTTAGAPTAGTQGFSLKAPGAASGTSTTTSTAATATATTTSSSSTTGFALNLKPLAPAGIPSNTAAAVTAPPGPGAAAGAAASSAMTYAQLESLINKWSLELEDQERHFLQQATQVNAWDRTLIENGEKITSLHREVEKVKLDQKRLDQELDFILSQQKELEDLLSPLEELVKEQSGTIYLQHADEEREKTYKLAENIDAQLKRMAQDLKDIIEHLNTSGAPADTSDPLQQICKILNAHMDSLQWIDQNSALLQRKVEEVTKVCEGRRKEQERSFRITFD
notes: Detected with anti-Nup62
B3: GFP-KPNB1 H1 (receptor)
chain: {GFP}-GGGSGGGSGGGSMELITILEKTVSPDRLELEAAQKFLERAAVEN
modifications: also: GFP tag fused N-terminally, not in chain, (GGGS)3 linker in chain
notes: not shown: GFP/EGFP tag (pEGFP-C1, Clontech)
B4: GFP-TDP-CTF non-PrLD (other, human)
chain: GGGSGGGSGGGSREFFSQYGDVMDVFIPKPFRAFAFVTFADDQIAQSLCGEDLIIKGISVHISNAEPKHNSNRQLERSG
notes: as for B3
B5: GFP-KPNB1 H1-6 (receptor)
chain: GGGSGGGSGGGSMELITILEKTVSPDRLELEAAQKFLERAAVENLPTFLVELSRVLANPGNSQVARVAAGLQIKNSLTSKDPDIKAQYQQRWLAIDANARREVKNYVLQTLGTETYRPSSASQCVAGIACAEIPVNQWPELIPQLVANVTNPNSTEHMKESTLEAIGYICQDIDPEQLQDKSNEILTAIIQGMRKEEPSNNVKLAATNALLNSLEFTKANFDKESERHFIMQVVCEATQCPDTRVRVAALQNLVKIMSLYY
notes: as for B3
B6: GFP-KPNB1 H1-2 (receptor)
chain: GGGSGGGSGGGSMELITILEKTVSPDRLELEAAQKFLERAAVENLPTFLVELSRVLANPGNSQVARVAAGLQIKNSLTSKDPD
notes: as for B3

Assays:
[1] = target: T1, GFP-KPNB1 full-length (FL) (Homo sapiens (Human), UniProt Q14974 1-876); assay: co-IP of GFP-tagged KPNB1 truncations, western blot
T1 construct: the plasmid is GFP-KPNB1 (Euroscarf #P30478); The linker is stated in general for fluorescent protein fusions; also called EGFP-KPNB1; GFP-KPNB1^FL; not shown: GFP/EGFP tag (pEGFP-C1, Clontech)
T1 sequence (Q14974 other isoform, or with tags, fused parts or gaps): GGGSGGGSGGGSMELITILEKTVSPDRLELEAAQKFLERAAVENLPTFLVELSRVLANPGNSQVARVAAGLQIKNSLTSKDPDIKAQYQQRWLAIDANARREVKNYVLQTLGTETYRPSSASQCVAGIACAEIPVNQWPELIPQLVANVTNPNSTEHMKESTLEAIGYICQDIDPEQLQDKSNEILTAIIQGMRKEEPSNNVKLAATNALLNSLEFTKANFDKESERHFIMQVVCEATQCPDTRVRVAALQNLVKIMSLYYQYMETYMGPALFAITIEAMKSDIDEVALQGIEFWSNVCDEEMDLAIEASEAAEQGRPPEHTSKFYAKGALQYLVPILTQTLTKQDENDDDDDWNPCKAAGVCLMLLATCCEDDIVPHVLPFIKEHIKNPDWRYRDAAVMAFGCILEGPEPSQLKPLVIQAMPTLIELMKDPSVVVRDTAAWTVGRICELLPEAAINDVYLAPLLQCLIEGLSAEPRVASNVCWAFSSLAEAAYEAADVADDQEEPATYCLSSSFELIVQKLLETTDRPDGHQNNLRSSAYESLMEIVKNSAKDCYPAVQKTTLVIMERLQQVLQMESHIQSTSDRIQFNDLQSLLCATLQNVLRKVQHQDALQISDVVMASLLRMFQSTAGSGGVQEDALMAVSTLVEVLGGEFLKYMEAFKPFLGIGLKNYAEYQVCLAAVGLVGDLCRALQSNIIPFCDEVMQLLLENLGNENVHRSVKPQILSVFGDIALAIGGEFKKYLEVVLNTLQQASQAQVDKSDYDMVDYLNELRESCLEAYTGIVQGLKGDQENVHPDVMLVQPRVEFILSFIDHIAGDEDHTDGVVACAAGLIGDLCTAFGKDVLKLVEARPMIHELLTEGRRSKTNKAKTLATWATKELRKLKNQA
Description: (§1) FIG. 21A) Schematic domain structure of KPNB1. KPNB1 is comprised of 19 HEAT repeats (H1-19). RanGTP and importin-α interact with H1-8 and H8-19, respectively. FG-Nups bind to two regions of KPNB1, H5-7 and H14-16. FIG. 21B) Lysates from HEK293T cells expressing GFP, GFP-KPNB1 full-length (FL), N-terminal fragments of KPNB1 (H1-9 . . . H1) or the C-terminal fragment of KPNB1 (H10-19) were subjected to immunoprecipitation with GFP-Trap magnetic beads. Whole cell lysates (input) and immunoprecipitates (IP) were subjected to western blot analysis using indicated antibodies. KPNB1 H1-8, the smallest fully active KPNB1 fragment in reducing TDP-43 aggregation, strongly interacts with FG-Nups and Ran, and weakly with importin-al in comparison with full-length KPNB1. FIG. 21C) (Top) Schematic domain structure of KPNB1 H1-8^mNIS harboring four missense mutations (1178A, F217A, Y255A, I263R) in the nucleoporin-interacting site (NIS). (Bottom) Lysates from HEK293T cells expressing GFP, GFP-KPNB1 H1-8^WT or H1-8^mNIS were subjected to immunoprecipitation with GFP-Trap magnetic beads. Whole cell lysates (input) and immunoprecipitates (IP) were subjected to western blot analysis using indicated antibodies. […] Hoechst staining was used to outline nuclei. Scale bar: 5 μm. […] Statistical analysis was performed using one-way ANOVA and Bonferroni's post hoc test (**p<0.01, ***p<0.001, n=4). FIG. 21F) IF of HEK293T cells co-expressing GFP-(GR)₁₀₀ with an empty plasmid (ctrl), FLAG-tagged KPNB1 H1-8^WT or H1-8^mNIS and stained for endogenous TDP-43. Unlike KPNB1 H1-8^mNIS, KPNB1 H1-8^WT prevents the sequestration of endogenous TDP-43 in cytoplasmic GR aggregates. Arrowheads point to cytoplasmic GR aggregates. Hoechst staining was used to outline nuclei. Scale bar: 5 μm.

endogenous Nup62 = target: B2; assay: as above
Description: as §1

endogenous Nup50 = target: B1; assay: as above
Description: as §1

endogenous Ran = endogenous Ran (human, UniProt P62826 2-216); assay: as above
Description: as §1

endogenous importin-α1 = endogenous importin-α1 (human, UniProt P52292 2-529); assay: as above
Description: as §1

Untagged KPNB1 = target: T2, Untagged KPNB1 (Homo sapiens (Human), UniProt Q14974 1-876); assay: GFP-Trap IP from HEK293T lysates, western blot
T2 construct: KPNB1 amplified by PCR and cloned into pEGFP-C1 lacking the GFP tag; also called Wildtype KPNB1
T2 sequence (Q14974 whole entry): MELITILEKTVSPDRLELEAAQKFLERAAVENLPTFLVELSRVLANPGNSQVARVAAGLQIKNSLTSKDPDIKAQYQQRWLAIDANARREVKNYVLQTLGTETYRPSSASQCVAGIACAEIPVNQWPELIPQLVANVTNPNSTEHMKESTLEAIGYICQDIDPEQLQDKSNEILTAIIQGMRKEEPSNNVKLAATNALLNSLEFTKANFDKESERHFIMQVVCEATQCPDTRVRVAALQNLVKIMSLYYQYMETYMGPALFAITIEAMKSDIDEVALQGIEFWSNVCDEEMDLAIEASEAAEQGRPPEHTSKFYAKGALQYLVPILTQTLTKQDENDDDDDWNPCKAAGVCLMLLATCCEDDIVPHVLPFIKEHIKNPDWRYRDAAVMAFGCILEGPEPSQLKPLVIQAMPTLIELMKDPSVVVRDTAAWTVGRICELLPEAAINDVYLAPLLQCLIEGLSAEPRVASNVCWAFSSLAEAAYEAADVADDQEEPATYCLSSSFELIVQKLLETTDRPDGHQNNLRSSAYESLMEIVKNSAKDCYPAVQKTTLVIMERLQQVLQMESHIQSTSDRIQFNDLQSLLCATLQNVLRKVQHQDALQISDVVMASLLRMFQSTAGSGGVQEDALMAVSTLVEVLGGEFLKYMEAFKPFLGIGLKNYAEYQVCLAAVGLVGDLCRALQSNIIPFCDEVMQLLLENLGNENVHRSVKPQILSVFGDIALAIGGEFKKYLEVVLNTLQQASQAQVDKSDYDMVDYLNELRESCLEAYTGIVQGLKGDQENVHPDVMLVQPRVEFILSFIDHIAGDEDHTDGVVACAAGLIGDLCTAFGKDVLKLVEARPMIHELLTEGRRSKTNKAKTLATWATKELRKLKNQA
Description: FIGS. 29A-29C: Untagged KPNB1 interacts with both the RRM2 and PrLD of TDP-CTF. FIG. 29A) (Left) Lysates from HEK293T cells expressing GFP alone, or untagged KPNB1 with GFP, GFP-TDP-CTF or GFP-TDP43^WT were subjected to immunoprecipitation with GFP-Trap magnetic beads. Whole cell lysates (input) and immunoprecipitates (IP) were subjected to western blot analysis using indicated antibodies. (Right) Quantification of relative KPNB1 levels in IP normalized by KPNB1 levels in input. Statistical analysis was performed using one-way ANOVA and Bonferroni's post hoc test (**p<0.01, ***p<0.001, n=3). […] FIG. 29C) (Left) Lysates from HEK293T cells expressing GFP alone, or untagged KPNB1 with GFP, GFP-TDP-CTF, GFP-TDP-CTF^non-PrLD or GFP-TDP-PrLD were subjected to immunoprecipitation with GFP-Trap magnetic beads. Whole cell lysates (input) and immunoprecipitates (IP) were subjected to western blot analysis using indicated antibodies. (Right) Quantification of relative KPNB1 levels in IP normalized by KPNB1 levels in input. Statistical analysis was performed using one-way ANOVA and Bonferroni's post hoc test (***p<0.001, n=3).
FIGS. 31A-31C: The PrLD of TDP-43 interacts with FG-Nups and KPNB1. FIG. 31A) Immunofluorescence (IF) of HEK293T cells expressing GFP or GFP-TDP-PrLD and stained for endogenous Nup98 and Nup62. TDP-PrLD forms small cytoplasmic foci positive for Nup62. FIG. 31B) IF of HEK293T cells expressing GFP or GFP-TDP-PrLD and stained for endogenous KPNB1. KPNB1 colocalizes with TDP-PrLD foci in the cytoplasm. Hoechst staining was used to outline nuclei. Scale bar: 5 μm. FIG. 31C) Lysates from HEK293T cells expressing GFP or GFP-TDP-PrLD were subjected to immunoprecipitation with GFP-Trap magnetic beads. Whole cell lysates (input) and immunoprecipitates (IP) were subjected to western blot analysis using indicated antibodies. The PrLD of TDP-43 interacts with Nup62, Nup98 and KPNB1, but not with Ran.
HEK293T cells were seeded in 6-well plates and transfected for 48 hours. Cells were then lysed in IP Lysis buffer (Fisher) supplemented with a protease inhibitor cocktail (Roche), and were centrifuged at 15000 rpm for 20 minutes at 4° C. A small aliquot of the recovered supernatant was set aside (input).

binding result [1]	binding result (endogenous Nup62)	binding result (endogenous Nup50)	binding result (endogenous Ran)	binding result (endogenous importin-α1)	binding result (Untagged KPNB1)	Binder
binds	–	–	–	–	–	B1
binds	–	–	–	–	–	B2
–	no binding	no binding	no binding	no binding	–	B3
–	–	–	–	–	binds	B4
–	no binding	no binding	no binding	no binding	–	B5
–	no binding	no binding	no binding	no binding	–	B6
